Measured values from patent US20020173629A1.
pIC50, pKd: −log10 of the molar value.

Columns and labels:
[1] = target: human EGF-r expressed on the surface of human carcinoma cells (A431, SW948) (human) (UniProt P00533); test: cell-based or functional assay
[2] = target: human EGF-r expressed on the surface of human carcinoma cells (A431, SW948) (human) (UniProt P00533); test: inhibition of [125I]EGF (0.1 nM) binding to A431 cells
[3] = target: human EGF-r expressed on the surface of human carcinoma cells (A431, SW948) (human) (UniProt P00533); test: inhibition of [125I]EGF binding to SW948 cells
[4] = target: Soluble EGF-r purified from A431 cell membranes (Sigma, E-3641) (human) (UniProt P00533); test: BIAcore, solid phase, antigen immobilised at 228 RU

IC50 of inhibition of A431 cell proliferation [1] [nM] | pIC50 [2] | inhibition of EGF-induced tyrosine phosphorylation of EGFr in A431 cells [1] [nM] | inhibition of SW948 cell growth in vitro [1] [%] | pIC50 [3] | pKd [4] | Substance
0.66 | 7.82 | – | – | – | – | murine monoclonal antibody 528
0.125 | 8.52 | 133 | 100 | 9.05 | 10.24 | E7.6.3 antibody (secreted by the hybridoma E7.6.3)
